Test results published in US20180355056A1 (Novartis, published 2018).

Key:
[1] = biological target: T1, Human FXI activated (human, UniProt P03951 19-387; P03951 388-625); test: SET KD compared with the BIACORE KD for the FXI catalytic domain
T1 construct: The activity assay used Kordia HFXIa 1111a; also called huFXIa

[2] = biological target: T2, Human FXI zymogen (human, UniProt P03951 19-625); test: as above
T2 construct: also called huFXI; zymogen FXI
T2 sequence (P03951 19-625 C226S): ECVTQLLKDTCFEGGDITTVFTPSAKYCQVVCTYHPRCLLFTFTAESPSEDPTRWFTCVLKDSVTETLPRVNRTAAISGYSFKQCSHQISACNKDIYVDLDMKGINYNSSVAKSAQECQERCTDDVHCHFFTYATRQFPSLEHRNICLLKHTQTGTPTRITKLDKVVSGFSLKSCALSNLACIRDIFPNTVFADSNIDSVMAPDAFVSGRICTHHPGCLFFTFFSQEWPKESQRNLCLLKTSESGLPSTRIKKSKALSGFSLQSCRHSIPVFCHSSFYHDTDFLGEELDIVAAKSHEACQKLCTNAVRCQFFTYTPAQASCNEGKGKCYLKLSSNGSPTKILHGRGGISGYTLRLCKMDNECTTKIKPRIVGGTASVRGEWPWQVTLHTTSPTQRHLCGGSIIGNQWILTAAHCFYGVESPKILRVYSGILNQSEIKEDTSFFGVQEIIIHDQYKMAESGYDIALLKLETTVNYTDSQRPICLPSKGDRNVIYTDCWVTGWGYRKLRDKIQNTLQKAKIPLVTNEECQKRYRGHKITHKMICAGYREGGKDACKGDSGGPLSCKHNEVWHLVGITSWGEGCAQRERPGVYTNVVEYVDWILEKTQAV

T1 sequence (P03951 19-387 C226S, chain 1 of 2): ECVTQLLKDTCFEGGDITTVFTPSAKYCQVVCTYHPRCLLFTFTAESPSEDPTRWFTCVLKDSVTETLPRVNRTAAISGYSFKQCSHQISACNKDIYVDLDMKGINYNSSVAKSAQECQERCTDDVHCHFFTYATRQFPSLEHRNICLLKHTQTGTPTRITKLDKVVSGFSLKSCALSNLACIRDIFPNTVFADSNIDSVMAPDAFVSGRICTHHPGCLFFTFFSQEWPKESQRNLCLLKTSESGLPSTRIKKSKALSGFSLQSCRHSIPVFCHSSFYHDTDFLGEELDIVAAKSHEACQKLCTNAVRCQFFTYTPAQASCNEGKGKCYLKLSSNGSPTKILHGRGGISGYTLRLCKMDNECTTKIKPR
T1 sequence (P03951 388-625, chain 2 of 2): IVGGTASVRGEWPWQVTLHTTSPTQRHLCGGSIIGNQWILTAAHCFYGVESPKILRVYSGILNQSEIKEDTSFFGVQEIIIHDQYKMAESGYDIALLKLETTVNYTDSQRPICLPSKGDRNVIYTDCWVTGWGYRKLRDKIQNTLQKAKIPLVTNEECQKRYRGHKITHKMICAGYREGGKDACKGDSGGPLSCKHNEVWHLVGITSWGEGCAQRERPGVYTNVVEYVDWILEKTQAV

- fold higher affinity than to the catalytic domain [1]: 66 times
- fold higher affinity than to the catalytic domain [2]: 300 times
B1: NOV1401-Fab (Fab, V domains shown)
VH: QVQLLESGGGLVQPGGSLRLSCAASGFTFSTAAMSWVRQAPGKGLEWVSGISGSGSSTYYADSVKGRFTISRDNSKNTLYLQMNSLRAEDTAVYYCARELSYLYSGYYFDYWGQGTLVTVSS
VL: QSVLTQPPSASGTPGQRVTISCSGSSSNIGSNDVSWYQQLPGTAPKLLIYKNYNRPSGVPDRFSGSKSGTSASLAISGLQSEDEADYYCSAWDQRQFDVVFGGGTKLTVLG
notes: also called Fab portion of NOV1401
